Measured values reported in US9803012B2, “Compositions and methods for regulating SAS1R” (UNIVERSITY OF VIRGINIA PATENT FOUNDATION, priority 2005, dated 2017).

What was measured:
mouse sperm-egg fusion = settings: cited from earlier work
oolemma = settings: sea urchin; cited from earlier work
Metaphase II eggs = test: Egg labeling by indirect immunofluorescence; assay type: cell-based, mouse; settings: 100 μg/ml protein, 45 min
Method: Metaphase II eggs were obtained as previously described (Coonrod et al, 1999) and incubated with 5% NGS/media for 30 min. Oocytes were washed five times in TYH medium and incubated with 100 μg/ml recmSLLP1 or 100 μg/ml lysozymes for 45 min at 37° C. and 5% CO2. Oocytes were washed five times and incubated with guinea pig anti-recmSLLP1 polyclonal antibody (1:50), sheep anti-human lysozyme (1:25) or rabbit anti-chicken lysozyme (1:400) in 5% NGS/media for 1 h at 37° C. and 5% CO2. Oocytes were washed five times and incubated with donkey anti-guinea pig/Texas Red antibody (1:200) or goat anti-guinea pig/FITC antisera 1:200), donkey anti-sheep and goat anti-rabbit FITC-labeled secondary antibody (1:200) (Jackson ImmunoResearch), respectively in 5% NGS/media for 1 h at […] 37° C. and 5% CO2. Oocytes were washed and mounted in media onto glass slides and visualized under a Zeiss Standard 18 ultraviolet microscope. Images were captured by using MrGrab 1.0 (Carl Zeiss Vision GmbH, Germany).

mouse eggs = test: Binding of SLLP2 to mouse eggs; assay type: cell-based; settings: human SLLP2
Method: To analyze the biologic activity of human SLLP2, it was determined whether it would bind to an egg, in this case, a mouse egg.
For comparison to the use of human sperm SLLP2, an experiment was performed to determine if purified mouse SLLP2 would bind to Zona intact mouse eggs. […] Competitive assays were then performed to determine whether the addition of recombinant mouse SLLP2 to a mixture of mouse sperm and mouse eggs could inhibit binding of sperm and eggs. Various amounts of recombinant mouse SLLP2 were added (5, 25, 50, 100, and 200 μg/ml) and the number of sperm bound per egg was determined.

zona-free mouse eggs = test: In vitro fertilization with zona-free eggs (sperm-oolemma binding and fusion); assay type: cell-based; settings: 25 μg of human SLLP1
Method: For the sperm-oolemma binding assay, two cauda epididymides were placed in 900 μl drops of fertilization medium under paraffin oil for the dense mass of spermatozoa to flow freely for ˜15 min and then diluted at 1×10^6/ml for 3 h of capacitation. Cumulus oocyte complexes were placed in 200 μl drops of TYH medium under paraffin oil. Cumulus cells were removed by treating the oocytes for 3 min with 1 mg/ml hyaluronidase in TYH medium and then washed 8 times in 50 μl drops. Zona pellucidae were loosened by treating the oocytes with 10 μg/ml chymotrypsin in TYH media for 1 min and loosened zonae were removed by mechanical agitation using a pulled Pasteur pipette. The oocytes were then washed 10 times and allowed to recover from chymotrypsin treatment by incubating in TYH media for 3 h, following which, they were stained with 10 μg/ml Hoechst dye for 10 min, and then gently washed. […]
To compare the effects of recmSLLP1 with human and chicken c lysozymes, spermatozoa were first incubated under standard capacitating conditions. Oocytes were pre-incubated for 45 min before insemination with recmSLLP1 (0.1 to 200 μg/ml) or with hSLLP1 (25 μg/ml) or with chicken or human lysozyme (50 μg/ml, 100 μg/ml). Untreated capacitated sperm were then added to the incubation drops containing the treated eggs with a final sperm concentration of 2.5×10^4/ml. Thus, in all the experiments performed the sera, the recombinant protein, or the lysozyme was present in the incubation droplet during gamete interaction. After 30 min of gamete co-incubation, oocytes were gently washed 5 times in TYH medium and placed between a microscope slide and an elevated coverslip and visualized at 160×. Binding to the oocyte was scored by counting the number of bound spermatozoa per oocyte using phase contrast. Fusion with the egg was scored by counting the number of decondensed sperm heads within each oocyte using fluorescence microscopy.

cumulus intact oocytes = test: Mouse in vitro fertilization, capacitated sperm pre-incubated with rSAS1R; assay type: cell-based
Method: Epididymal sperm from sexually mature and oocytes from 6 to 8 weeks old ICR mice were used for gamete studies and IVF. Capacitated sperm in presence or absence of rSAS1R were used to inseminate cumulus intact oocytes and fertilization was scored by counting two cell embryos.
ICR mice were used in all experiments. Suspensions of epididymal spermatozoa from sexually mature male mice were prepared for insemination of isolated oocytes. Oocytes were obtained from 6 to 8 weeks old females superovulated with 10 IU PMSG and 10 IU hCG, injected intraperitoneally at 48 h intervals. Females were killed 16 h after hCG injection, and both oviducts were immediately removed, placed in mineral oil, and flushed to recover oocytes.
In vitro fertilization was conducted with cumulus intact oocytes using sperm dispersed from cauda epididymides. Sperm were placed for 5 min in 200 μl drops of fertilization medium under paraffin oil. […] The eggs were then placed in 5 μl of fertilization medium between a microscope slide and an elevated coverslip, and visualized at 160× using light and fluorescence microscopy (Zeiss Axioplan). Two-cell embryos were scored as fertilized, while one-celled oocytes were scored as unfertilized.

[1] = target: T1, fluorescent tagged synthetic peptide (Mus musculus, UniProt Q6HA09); test: Protease activity assay of SAS1R (EnzChek Peptidase/Protease Assay Kit, FRET); assay type: biochemical
T1 construct: The mature rSAS1R (414 residues); 20 vector-encoded residues including His6 (pET-28b) (N); made in house; host or cells: E. coli BL21DE3
T1 sequence (Q6HA09 22-435): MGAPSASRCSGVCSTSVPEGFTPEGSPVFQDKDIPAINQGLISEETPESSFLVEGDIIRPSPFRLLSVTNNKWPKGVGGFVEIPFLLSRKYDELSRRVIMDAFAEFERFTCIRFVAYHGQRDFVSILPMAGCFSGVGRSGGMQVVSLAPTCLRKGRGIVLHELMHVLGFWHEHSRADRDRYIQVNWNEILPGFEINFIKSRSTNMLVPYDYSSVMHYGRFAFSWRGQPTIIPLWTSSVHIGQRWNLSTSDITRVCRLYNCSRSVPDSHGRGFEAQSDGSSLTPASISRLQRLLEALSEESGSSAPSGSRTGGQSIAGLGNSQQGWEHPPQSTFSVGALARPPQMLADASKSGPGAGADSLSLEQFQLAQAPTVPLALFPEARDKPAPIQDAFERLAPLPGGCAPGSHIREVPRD
Method: Protease activity was assayed with purified soluble rSAS1R using the EnzChek® Peptidase/Protease Assay Kit.
Protease activity was assayed in serial dilutions (0-2000 ng) of purified bacterial recombinant SAS1R using the EnzChek® Peptidase/Protease Assay Kit (Molecular Probes, OR), which provides a FRET (fluorescence resonance energy transfer)-based method for quantitation of a wide range of protease activities. This assay was performed in 100 μl size reactions and repeated three times with varying concentrations of recombinant SAS1R. Fluorescence was measured over 24 h following the manufacturer's protocol. Protease activity of recombinant SAS1R appeared within 1 h and increased within 24 h. SLLP1 was used as a negative control. The assay method was validated using purified trypsin as a positive control (Sigma, MO).

capacitated sperm = test: Co-localization of rSAS1R binding sites and SLLP1 on sperm; assay type: cell-based, mouse; settings: capacitated sperm incubated with rSAS1R, probed with both antibodies
Method: Zona intact-, zona free oocytes, early embryos and sperm were collected as before (10), blocked and probed with 1st and 2nd antibody and imaged with UV-microscopy. For co-LC studies, gametes were incubated with soluble rSAS1R or rSLLP1, washed, probed with 1st- and 2nd antibodies and imaged with UV-microscopy.
Similarly capacitated mouse sperm were also examined for co-localization of SAS1R binding sites and SLLP1 localization. Sperms were incubated with increasing concentrations (0-100 μg/ml) of rSAS1R for 1 h, then sperm were washed two times at 700 g for 8 min and droplets were made on glass slide. These droplets were air-dried for 30 min and rehydrated again with 20 μl of PBS for 5 min. Now in the droplets, sperm were fixed with 20 μl of 4% paraformaldehyde for 25 min and then washed with 20 μl of PBS thrice for 5 min each. Now the droplets were blocked with 10% NGS for 30 min and incubated with guinea pig anti-rSAS1R polyclonal antibody (1:200) and rat anti-rSLLP1 polyclonal antibody (1:200) simultaneously, in 0.1% NGS/media for 1 h at 37° C. and 5% CO2. All the droplets were washed three times and incubated with goat anti-guinea pig/Cy3 red antibody (1:200, Jackson ImmunoResearch, PA) and goat anti-rat/FITC green antibody (1:200, Jackson ImmunoResearch, PA), in 0.1% NGS/media for 1 h at 37° C. and 5% CO2. Sperms were washed and mounted in media on glass slides. […]

c1cnc2c(c1)ccc1cccnc12 [1,10-phenanthroline]
sperm-egg binding (mouse sperm-egg fusion): without reducing sperm-egg binding | sperm-egg fusion (mouse sperm-egg fusion): inhibited mouse sperm-egg fusion | binding of acrosome reacted sperm to the oolemma (oolemma): no effect | block of membrane fusion (oolemma): 95%

chicken lysozyme: conventional chicken c lysozyme used as comparator
fluorescence of mouse oocytes after incubation with protein and respective antibody (Metaphase II eggs): did not show any fluorescence

human lysozyme: conventional human c lysozyme used as comparator
fluorescence of mouse oocytes after incubation with protein and respective antibody (Metaphase II eggs): did not show any fluorescence

B1: human SLLP2: recombinant human SLLP2 expressed in E. coli (SEQ ID NO:18) (protein, listed as Homo sapiens)
chain: MKAWGTVVVTLATLMVVTVDAKIYERCELAARLERAGLNGYKGYGVGDWLCMAHYESGFDTAFVDHNPDGSSEYGIFQLNSAWWCDNGITPTKNLCHMDCHDLLNRHILDDIRCAKQIVSSQNGLSAWTSWRLHCSGHDLSEWLKGCDMHVKIDPKIHP
binding to mouse eggs (cross-species) (mouse eggs): can indeed bind with mouse eggs

B2: human SLLP1: human sperm lysozyme-like protein 1 (SEQ ID NO:14) (protein, listed as Homo sapiens)
chain: MVSALRGAPLIRVHSSPVSSPSVSGPRRLVSCLSSQSSALSQSGGGSTSAAGIEARSRALRRRWCPAGIMLLALVCLLSCLLPSSEAKLYGRCELARVLHDFGLDGYRGYSLADWVCLAYFTSGFNAAALDYEADGSTNNGIFQINSRRWCSNLTPNVPNVCRMYCSDLLNPNLKDTVICAMKITQEPQGLGYWEAWRHHCQGKDLTEWVDGCDF
sperm-egg binding and fusion (zona-free mouse eggs): maximally inhibited

B3: rSAS1R: mature recombinant mouse SAS1R (414 residues; SEQ ID NO:6) expressed in E. coli with histidine tag, affinity purified (protein, listed as Mus musculus)
chain: T1 sequence (Q6HA09 22-435)
modifications: His tag
reduction in fertilization (cumulus intact oocytes; 10 μg/ml rSAS1R): not statistically significant | reduction in fertilization (cumulus intact oocytes; 25 μg/ml rSAS1R, P≦0.03, two cell embryos scored): 89% | proteolytic activity ([1]; 200-2000 ng rSAS1R in 100 μl assay, FRET, up to 24 h): dose dependent proteolytic activity | time until protease activity appeared ([1]; fluorescence measured over 24 h): ≤ 1 h | binding to sperm (capacitated sperm): binds to acrosome of sperm and co-localizes with native SLLP1
